# In PMC9116133:
# Key:
# [1] = biological target: truncated zymogen of plasmepsin I (pro-tPMI) (P. falciparum); assay: SAXS
# [2] = biological target: truncated zymogen of histo-aspartic protease (pro-tHAP) (P. falciparum); assay: crystal structure
# [3] = biological target: truncated zymogen of plasmepsin II, wild type (pro-tPMII) (P. falciparum); assay: SEC
substance,measurement,setting,value
truncated zymogen of plasmepsin I (pro-tPMI) (enzyme),stoichiometry N,[1],2
truncated zymogen of histo-aspartic protease (pro-tHAP) (enzyme),stoichiometry N,[2],2
"truncated zymogen of plasmepsin II, wild type (pro-tPMII) (enzyme)",stoichiometry N,[3],2
